Experiments:
5HT3a = molecular target: T1, 5HT3a (Homo sapiens, UniProt P46098); assay: Ion channel panel (IonWorks Barracuda): 5HT3a; type: cell-based
T1 construct: host or cells: HEK293 or CHO
T1 sequence (P46098 whole entry, looked up): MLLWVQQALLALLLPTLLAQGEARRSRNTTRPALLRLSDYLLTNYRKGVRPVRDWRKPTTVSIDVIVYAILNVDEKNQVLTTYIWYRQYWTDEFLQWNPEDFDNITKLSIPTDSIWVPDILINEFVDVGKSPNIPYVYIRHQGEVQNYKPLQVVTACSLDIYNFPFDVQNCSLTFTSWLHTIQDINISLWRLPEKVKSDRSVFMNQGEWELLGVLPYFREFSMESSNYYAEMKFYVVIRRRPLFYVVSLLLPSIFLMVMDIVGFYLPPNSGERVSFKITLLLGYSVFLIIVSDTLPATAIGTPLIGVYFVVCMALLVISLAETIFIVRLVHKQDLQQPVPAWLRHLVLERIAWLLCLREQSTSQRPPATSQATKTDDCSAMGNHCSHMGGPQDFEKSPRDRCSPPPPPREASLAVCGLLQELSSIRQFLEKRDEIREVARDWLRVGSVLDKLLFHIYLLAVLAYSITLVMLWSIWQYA
Method in brief: (§1)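 Peptides were tested in duplicate at final 20 μM and 200 nM, with concentration set by amino acid analysis, in HEPES-buffered saline. They were applied for at least 5 min to HEK293 or CHO cells transfected with each channel. Currents were expressed as % inhibition, 1-(Ipeptide/Icontrol)×100, or % activation, Ipeptide/Icontrol×100, against a channel-matched reference compound.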

α3β4 = molecular target: T2, α3β4 (Homo sapiens, UniProt P30926+P32297); assay: Ion channel panel (IonWorks Barracuda): α3β4; type: cell-based; conditions: 100% = no change, <100% = inhibition
T2 construct: host or cells: HEK293 or CHO
T2 sequence (P30926 22-498): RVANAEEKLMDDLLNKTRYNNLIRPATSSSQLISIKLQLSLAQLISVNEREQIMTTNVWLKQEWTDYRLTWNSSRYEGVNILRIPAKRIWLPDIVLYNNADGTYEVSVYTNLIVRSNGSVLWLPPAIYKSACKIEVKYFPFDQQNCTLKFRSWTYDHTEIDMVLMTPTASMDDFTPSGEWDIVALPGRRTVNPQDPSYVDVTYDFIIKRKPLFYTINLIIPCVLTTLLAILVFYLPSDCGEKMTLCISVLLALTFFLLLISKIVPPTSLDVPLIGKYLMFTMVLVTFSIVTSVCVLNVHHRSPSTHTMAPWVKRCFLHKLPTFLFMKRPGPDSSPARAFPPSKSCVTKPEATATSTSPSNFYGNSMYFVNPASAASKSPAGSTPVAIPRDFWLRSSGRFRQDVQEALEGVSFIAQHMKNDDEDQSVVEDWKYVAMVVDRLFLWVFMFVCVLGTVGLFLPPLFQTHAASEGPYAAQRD
T2 sequence (P32297 32-505): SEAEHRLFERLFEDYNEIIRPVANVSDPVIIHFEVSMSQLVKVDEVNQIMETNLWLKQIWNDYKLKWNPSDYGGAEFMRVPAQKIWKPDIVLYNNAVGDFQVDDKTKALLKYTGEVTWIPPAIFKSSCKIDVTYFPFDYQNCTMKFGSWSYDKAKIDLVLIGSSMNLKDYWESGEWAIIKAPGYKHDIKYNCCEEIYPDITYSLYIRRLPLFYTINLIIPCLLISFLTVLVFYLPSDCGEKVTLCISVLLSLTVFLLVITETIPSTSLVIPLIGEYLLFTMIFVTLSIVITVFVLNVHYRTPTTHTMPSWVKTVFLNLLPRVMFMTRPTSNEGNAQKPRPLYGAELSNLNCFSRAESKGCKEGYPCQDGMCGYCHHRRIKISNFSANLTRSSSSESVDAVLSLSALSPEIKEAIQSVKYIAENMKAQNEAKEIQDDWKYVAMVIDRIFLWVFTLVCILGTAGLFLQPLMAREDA
Method in brief: as §1

α4β2 = molecular target: T3, α4β2 (Homo sapiens, UniProt P17787+P43681); assay: Ion channel panel (IonWorks Barracuda): α4β2; type: cell-based; conditions: 100% = no change, <100% = inhibition
T3 construct: host or cells: HEK293 or CHO
Method in brief: as §1

Cav2.1 = molecular target: T4, Cav2.1 (Homo sapiens, UniProt O00555); assay: cell-based; conditions: 100% = no change, <100% = inhibition
T4 construct: host or cells: HEK293 or CHO
Method in brief: as §1

Cav2.2 = molecular target: T5, Cav2.2 (Homo sapiens, UniProt Q00975); assay: cell-based; conditions: 100% = no change, <100% = inhibition
T5 construct: host or cells: HEK293 or CHO
Method in brief: as §1

Kv2.1 = molecular target: T6, Kv2.1 (Homo sapiens, UniProt Q14721); assay: cell-based; conditions: 100% = no change, <100% = inhibition
T6 construct: host or cells: HEK293 or CHO
Method in brief: as §1

GABA = assay: Ion channel panel (IonWorks Barracuda): GABA; type: cell-based; conditions: 100% = no change, <100% = inhibition
Method in brief: as §1

Nav1.5 = Nav1.5 (Homo sapiens, UniProt Q14524); assay: in vitro; conditions: 100% = no change; for Activity of Nav1.5 with peptide, expressed as a percentage of the reference compound: peptide at 0.2 μM; for Activity of Nav1.5 with peptide (percentage of the reference compound): peptide at 20 μM
Nav1.5, sequence (Q14524 whole entry): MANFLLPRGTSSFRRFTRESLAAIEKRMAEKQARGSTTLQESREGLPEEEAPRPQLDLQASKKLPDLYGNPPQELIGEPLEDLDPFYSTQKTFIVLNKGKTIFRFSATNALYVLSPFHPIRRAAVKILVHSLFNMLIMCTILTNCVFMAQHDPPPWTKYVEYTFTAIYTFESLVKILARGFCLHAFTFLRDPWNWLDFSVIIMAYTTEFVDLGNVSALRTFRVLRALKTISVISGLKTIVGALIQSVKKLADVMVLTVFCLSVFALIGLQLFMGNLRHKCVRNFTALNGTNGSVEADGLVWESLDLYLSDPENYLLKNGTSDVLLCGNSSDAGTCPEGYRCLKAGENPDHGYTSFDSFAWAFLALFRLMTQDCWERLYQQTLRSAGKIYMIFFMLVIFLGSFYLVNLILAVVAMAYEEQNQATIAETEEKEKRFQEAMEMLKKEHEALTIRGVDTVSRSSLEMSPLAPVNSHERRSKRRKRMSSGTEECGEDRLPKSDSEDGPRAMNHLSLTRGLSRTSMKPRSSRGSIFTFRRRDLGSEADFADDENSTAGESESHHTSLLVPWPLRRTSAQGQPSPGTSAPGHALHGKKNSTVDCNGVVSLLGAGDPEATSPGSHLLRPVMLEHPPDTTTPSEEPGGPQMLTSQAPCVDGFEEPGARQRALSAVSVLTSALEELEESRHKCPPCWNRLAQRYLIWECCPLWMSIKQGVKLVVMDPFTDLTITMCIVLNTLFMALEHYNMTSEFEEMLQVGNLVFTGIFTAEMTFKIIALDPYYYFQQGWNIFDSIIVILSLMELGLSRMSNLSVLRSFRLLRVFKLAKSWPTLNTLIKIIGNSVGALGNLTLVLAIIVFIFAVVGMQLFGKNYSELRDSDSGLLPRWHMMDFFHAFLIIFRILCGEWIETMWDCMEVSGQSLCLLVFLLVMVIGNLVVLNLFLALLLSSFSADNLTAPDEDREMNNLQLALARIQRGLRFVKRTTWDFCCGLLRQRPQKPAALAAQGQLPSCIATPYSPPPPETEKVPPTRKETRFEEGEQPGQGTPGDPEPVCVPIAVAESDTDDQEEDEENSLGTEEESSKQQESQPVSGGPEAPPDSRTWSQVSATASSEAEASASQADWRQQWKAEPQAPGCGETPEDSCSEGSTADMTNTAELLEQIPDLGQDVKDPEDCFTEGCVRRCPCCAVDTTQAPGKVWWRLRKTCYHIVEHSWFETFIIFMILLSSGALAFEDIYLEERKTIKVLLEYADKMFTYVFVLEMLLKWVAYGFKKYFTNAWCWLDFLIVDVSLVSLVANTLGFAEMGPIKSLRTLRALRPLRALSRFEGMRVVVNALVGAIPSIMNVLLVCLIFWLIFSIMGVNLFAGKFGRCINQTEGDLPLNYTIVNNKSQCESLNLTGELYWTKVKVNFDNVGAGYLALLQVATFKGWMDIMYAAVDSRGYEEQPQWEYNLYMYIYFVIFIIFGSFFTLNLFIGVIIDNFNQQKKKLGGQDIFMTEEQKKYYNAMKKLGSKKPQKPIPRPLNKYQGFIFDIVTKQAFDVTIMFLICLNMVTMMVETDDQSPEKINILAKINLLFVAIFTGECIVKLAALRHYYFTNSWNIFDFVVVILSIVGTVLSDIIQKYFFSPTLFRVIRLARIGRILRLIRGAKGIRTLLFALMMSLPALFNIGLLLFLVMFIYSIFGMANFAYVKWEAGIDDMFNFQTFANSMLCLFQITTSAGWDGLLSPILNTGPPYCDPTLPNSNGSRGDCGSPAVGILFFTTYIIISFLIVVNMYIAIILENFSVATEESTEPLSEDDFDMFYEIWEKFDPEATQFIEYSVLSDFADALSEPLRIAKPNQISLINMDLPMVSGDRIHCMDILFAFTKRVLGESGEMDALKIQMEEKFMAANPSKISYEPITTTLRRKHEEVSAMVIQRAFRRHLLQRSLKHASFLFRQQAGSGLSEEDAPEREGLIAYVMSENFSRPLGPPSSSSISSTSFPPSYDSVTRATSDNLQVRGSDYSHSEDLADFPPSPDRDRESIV
Method in brief: as §1

hERG = hERG (Homo sapiens, UniProt Q12809); assay: in vitro; conditions: 100% = no change, <100% = inhibition
Method in brief: as §1

Kir2.1 = molecular target: T7, Kir2.1 (Homo sapiens, UniProt P63252); assay: Ion channel panel (IonWorks Barracuda): Kir2.1; type: cell-based; conditions: 100% = no change, <100% = inhibition
T7 construct: host or cells: HEK293 or CHO
Method in brief: as §1

Kv1.1 = molecular target: T8, Kv1.1 (Homo sapiens, UniProt Q09470); assay: cell-based; type: cell-based; conditions: 100% = no change, <100% = inhibition
T8 construct: host or cells: HEK293 or CHO
Method in brief: as §1

Kv1.2 = molecular target: T9, Kv1.2 (Homo sapiens, UniProt P16389); assay: cell-based; type: cell-based; conditions: 100% = no change, <100% = inhibition
T9 construct: host or cells: HEK293 or CHO
Method in brief: as §1

Kv1.3 = molecular target: T10, Kv1.3 (Homo sapiens, UniProt P22001); assay: cell-based; type: cell-based; conditions: 100% = no change, <100% = inhibition
T10 construct: host or cells: HEK293 or CHO
Method in brief: as §1

Nav1.7 = molecular target: T11, Nav1.7 (Homo sapiens, UniProt Q15858); assay: cell-based; type: cell-based; conditions: 100% = no change; for Activity of Nav1.7 with peptide, expressed as a percentage of the reference compound: peptide at 0.2 μM; for Activity of Nav1.7 with peptide (percentage of the reference compound): peptide at 20 μM
T11 construct: host or cells: HEK293 or CHO
T11 sequence (Q15858 whole entry): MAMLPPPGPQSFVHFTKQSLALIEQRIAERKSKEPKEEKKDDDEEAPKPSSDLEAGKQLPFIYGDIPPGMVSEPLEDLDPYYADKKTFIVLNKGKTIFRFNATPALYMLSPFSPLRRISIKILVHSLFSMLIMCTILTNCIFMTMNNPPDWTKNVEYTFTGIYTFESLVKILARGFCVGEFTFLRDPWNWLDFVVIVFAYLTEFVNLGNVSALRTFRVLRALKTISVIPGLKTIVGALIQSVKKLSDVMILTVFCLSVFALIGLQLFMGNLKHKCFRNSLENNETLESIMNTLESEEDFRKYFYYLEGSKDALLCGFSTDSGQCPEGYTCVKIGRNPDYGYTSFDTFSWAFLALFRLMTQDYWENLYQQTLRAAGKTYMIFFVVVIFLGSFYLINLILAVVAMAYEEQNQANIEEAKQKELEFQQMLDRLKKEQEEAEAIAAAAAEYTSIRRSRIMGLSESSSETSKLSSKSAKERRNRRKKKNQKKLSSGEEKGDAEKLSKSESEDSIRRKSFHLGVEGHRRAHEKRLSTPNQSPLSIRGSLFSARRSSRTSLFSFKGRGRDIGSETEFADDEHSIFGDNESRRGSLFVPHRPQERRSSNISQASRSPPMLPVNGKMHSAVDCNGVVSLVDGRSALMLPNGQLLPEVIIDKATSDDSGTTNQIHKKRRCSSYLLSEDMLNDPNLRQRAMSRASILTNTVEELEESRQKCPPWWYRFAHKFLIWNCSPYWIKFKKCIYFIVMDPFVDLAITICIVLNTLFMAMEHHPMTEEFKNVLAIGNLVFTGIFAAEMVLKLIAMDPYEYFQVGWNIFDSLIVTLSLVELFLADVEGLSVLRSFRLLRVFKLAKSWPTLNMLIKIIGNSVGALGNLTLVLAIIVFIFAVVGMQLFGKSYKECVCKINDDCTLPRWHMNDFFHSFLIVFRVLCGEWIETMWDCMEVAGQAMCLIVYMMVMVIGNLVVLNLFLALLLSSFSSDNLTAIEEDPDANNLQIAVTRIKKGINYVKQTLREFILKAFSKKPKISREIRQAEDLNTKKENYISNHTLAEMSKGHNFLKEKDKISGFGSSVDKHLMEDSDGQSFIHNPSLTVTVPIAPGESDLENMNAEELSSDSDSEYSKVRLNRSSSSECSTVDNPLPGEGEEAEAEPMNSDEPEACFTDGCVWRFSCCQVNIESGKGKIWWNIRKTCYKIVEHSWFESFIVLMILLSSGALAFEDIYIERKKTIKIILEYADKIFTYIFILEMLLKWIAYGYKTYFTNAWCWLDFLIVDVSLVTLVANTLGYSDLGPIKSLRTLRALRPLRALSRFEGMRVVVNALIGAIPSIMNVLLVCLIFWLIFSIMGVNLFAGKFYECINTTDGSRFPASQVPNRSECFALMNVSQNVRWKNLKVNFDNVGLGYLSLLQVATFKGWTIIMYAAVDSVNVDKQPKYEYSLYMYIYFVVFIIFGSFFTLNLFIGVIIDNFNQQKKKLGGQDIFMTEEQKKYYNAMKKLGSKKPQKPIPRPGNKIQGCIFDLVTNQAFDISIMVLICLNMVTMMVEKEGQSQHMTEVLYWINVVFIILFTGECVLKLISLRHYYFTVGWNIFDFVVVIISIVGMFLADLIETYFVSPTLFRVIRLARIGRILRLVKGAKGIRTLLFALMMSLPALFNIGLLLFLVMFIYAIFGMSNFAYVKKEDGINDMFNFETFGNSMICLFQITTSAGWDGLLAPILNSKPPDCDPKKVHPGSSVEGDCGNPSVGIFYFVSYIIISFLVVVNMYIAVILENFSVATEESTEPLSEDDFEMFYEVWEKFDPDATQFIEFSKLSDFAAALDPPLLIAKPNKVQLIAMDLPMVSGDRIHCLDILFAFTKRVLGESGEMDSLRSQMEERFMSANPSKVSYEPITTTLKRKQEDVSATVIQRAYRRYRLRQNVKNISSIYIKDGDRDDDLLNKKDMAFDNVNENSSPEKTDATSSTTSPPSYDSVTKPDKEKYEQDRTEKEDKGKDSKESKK

NR2A = molecular target: T12, NR2A (Homo sapiens, UniProt Q12879); assay: Ion channel panel (IonWorks Barracuda): NR2A; type: cell-based; conditions: 100% = no change, <100% = inhibition
T12 construct: host or cells: HEK293 or CHO
Method in brief: as §1

NR2B = molecular target: T13, NR2B (Homo sapiens, UniProt Q13224); assay: Ion channel panel (IonWorks Barracuda): NR2B; type: cell-based; conditions: 100% = no change, <100% = inhibition
T13 construct: host or cells: HEK293 or CHO
Method in brief: as §1

TRPA1 = molecular target: T14, TRPA1 (Homo sapiens, UniProt O75762); assay: Ion channel panel (IonWorks Barracuda): TRPA1; type: cell-based; conditions: 100% = no change, <100% = inhibition
T14 construct: host or cells: HEK293 or CHO
Method in brief: as §1

TRPV1 = molecular target: T15, TRPV1 (Homo sapiens, UniProt Q8NER1); assay: Ion channel panel (IonWorks Barracuda): TRPV1; type: cell-based; conditions: 100% = no change, <100% = inhibition
T15 construct: host or cells: HEK293 or CHO
Method in brief: as §1

[1] = first of two Nav1.5 columns (probably TP1)
[2] = second of two Nav1.5 columns (probably TP2)
[3] = first of two Nav1.7 columns (probably TP1)
[4] = second of two Nav1.7 columns (probably TP2)

## 12 (GSNFKVEGACSKPCRKYCIDKGARNGKCINGRCHCYY) [compound 12]
5HT3a
  Activity of 5HT3a with peptide (percentage of the reference compound): 97%
  Activity of 5HT3a with peptide, expressed as a percentage of the reference compound: 96%
α3β4; peptide at 0.2 μM
  Activity of a3b4 with peptide, expressed as a percentage of the reference compound: 103%
α3β4; peptide at 20 μM
  Activity of a3b4 with peptide (percentage of the reference compound): 94%
α4β2; peptide at 0.2 μM
  Activity of a4b2 with peptide, expressed as a percentage of the reference compound: 97%
α4β2; peptide at 20 μM
  Activity of a4b2 with peptide (percentage of the reference compound): 84%
Cav2.1; peptide at 0.2 μM
  Activity of Cav2.1 with peptide, expressed as a percentage of the reference compound: 109%
Cav2.1; peptide at 20 μM
  Activity of Cav2.1 with peptide (percentage of the reference compound): 104%
Cav2.2; peptide at 0.2 μM
  Activity of Cav2.2 with peptide, expressed as a percentage of the reference compound: 115%
Cav2.2; peptide at 20 μM
  Activity of Cav2.2 with peptide (percentage of the reference compound): 115%
Kv2.1; peptide at 0.2 μM
  Activity of Kv2.1 with peptide, expressed as a percentage of the reference compound: 104%
Kv2.1; peptide at 20 μM
  Activity of Kv2.1 with peptide (percentage of the reference compound): 113%
GABA; peptide at 0.2 μM
  Activity of GABA with peptide, expressed as a percentage of the reference compound: 102%
GABA; peptide at 20 μM
  Activity of GABA with peptide (percentage of the reference compound): 93%
Nav1.5; [1]
  Activity of Nav1.5 with peptide, expressed as a percentage of the reference compound: 98%
  Activity of Nav1.5 with peptide (percentage of the reference compound): 131%
Nav1.5; [2]
  Activity of Nav1.5 with peptide, expressed as a percentage of the reference compound: 95%
  Activity of Nav1.5 with peptide (percentage of the reference compound): 136%
hERG; peptide at 0.2 μM
  Activity of hERG with peptide, expressed as a percentage of the reference compound: 89%
hERG; peptide at 20 μM
  Activity of hERG with peptide (percentage of the reference compound): 81%
Kir2.1; peptide at 0.2 μM
  Activity of Kir2.1 with peptide, expressed as a percentage of the reference compound: 97%
Kir2.1; peptide at 20 μM
  Activity of Kir2.1 with peptide (percentage of the reference compound): 102%
Kv1.1; peptide at 0.2 μM
  Activity of Kv1.1 with peptide, expressed as a percentage of the reference compound: 107%
Kv1.1; peptide at 20 μM
  Activity of Kv1.1 with peptide (percentage of the reference compound): 84%
Kv1.2; peptide at 0.2 μM
  Activity of Kv1.2 with peptide, expressed as a percentage of the reference compound: 88%
Kv1.2; peptide at 20 μM
  Activity of Kv1.2 with peptide (percentage of the reference compound): 41%
Kv1.3; peptide at 0.2 μM
  Activity of Kv1.3 with peptide, expressed as a percentage of the reference compound: 68%
Kv1.3; peptide at 20 μM
  Activity of Kv1.3 with peptide (percentage of the reference compound): 23%
Nav1.7; [3]
  Activity of Nav1.7 with peptide, expressed as a percentage of the reference compound: 61%
  Activity of Nav1.7 with peptide (percentage of the reference compound): 74%
Nav1.7; [4]
  Activity of Nav1.7 with peptide, expressed as a percentage of the reference compound: 66%
  Activity of Nav1.7 with peptide (percentage of the reference compound): 63%
NR2A; peptide at 0.2 μM
  Activity of NR2A with peptide, expressed as a percentage of the reference compound: 94%
NR2A; peptide at 20 μM
  Activity of NR2A with peptide (percentage of the reference compound): 91%
NR2B; peptide at 0.2 μM
  Activity of NR2B with peptide, expressed as a percentage of the reference compound: 122%
NR2B; peptide at 20 μM
  Activity of NR2B with peptide (percentage of the reference compound): 83%
TRPA1; peptide at 0.2 μM
  Activity of TRPA1 with peptide, expressed as a percentage of the reference compound: 129%
TRPA1; peptide at 20 μM
  Activity of TRPA1 with peptide (percentage of the reference compound): 80%
TRPV1; peptide at 0.2 μM
  Activity of TRPV1 with peptide, expressed as a percentage of the reference compound: 97%
TRPV1; peptide at 20 μM
  Activity of TRPV1 with peptide (percentage of the reference compound): 78%

Source: patent publication US20200262877A1, “ION CHANNEL-BINDING PEPTIDES AND METHODS OF USE THEREOF” (priority 2017, published 2020)
